Measured values as given in patent US20030049625, “Rapid and sensitive proximity-based assay for the detection and quantification of DNA binding proteins” (Saint Louis University, published 2003).

Legend:
[1] = biological target: T1, CAP (cAMP receptor protein) (Escherichia coli, UniProt P0ACJ8 P0ACJ8:2-210); test: competition; no effect up to 194.2 nM; 200 uM cAMP, 50 mM NaCl; details: chain copies: 2
Description: (§1) The fluorescence donor (fluorescein) and the fluorescence acceptor (dabcyl) were introduced into DNA fragments using commercially available dT-fluorescein and dT-dabcyl (Glen Research, Sterling, Va.), wherein dT stands fordeoxythymidine. The oligonucleotides were purified using reverse phase chromatography on a RPC column (Pharmacia) as previously described (Heyduk, E., and Heyduk, T. Anal. Biochem. 248, 216-227, 1997). The fractions containing the oligonucleotides were dried in a vacuum centrifuge concentrator and subsequently dissolved in 50 μl of water. The concentration of the stock solutions of oligonucleotides was determined by recording the UV-VIS absorption spectrum of a small aliquot of the stock solution diluted to 400 μl. The CAP1 oligonucleotide (SEQ ID NO:1) was hybridized with CAP4 oligonucleotide (SEQ ID NO:4) to generate the CAP1/CAP4 duplex and CAP2 oligonucleotide (SEQ ID NO:2) was hybridized with CAP3 oligonucleotide (SEQ ID NO:3) to generate the CAP2/CAP3 duplex. […] All subsequent fluorescence measurements were performed at 25° C. in 50-mM Tris/HCl (pH 8.0), 100 mM NaCl (or 50 mM NaCl where indicated), 1 mM EDTA, 0.1 mg/ml BSA, and 200 μM cAMP in 200 μl quartz cuvette using Aminco-Bowman Series 2 spectrofluorometer. The excitation wavelength was at 490 nm and the emission was recorded from 500 to 650 nm. […]

Trp repressor (TrpR) [2] = biological target: T2, Trp repressor (TrpR) (UniProt P0A881 P0A881:2-108); test: FRET; 400 nM TrpR, no change
Lac repressor (LacR) = Lac repressor (LacR) (UniProt P03023 P03023:1-360); test: FRET; 0-200 nM LacR, saturation ~150 nM, 50 nM DNA, 25 C; specificity confirmed with 5 mM IPTG; details: chain copies: 4; label: dT-fluorescein (LAC2), dT-dabcyl (LAC4); two half-site duplexes with short complementary overhangs
Experimental: The oligonucleotides were purified using reverse phase chromatography on RPC column (Amersham Pharmacia Biotech, Piscataway, N.J.) as previously described (Heyduk, E., and Heyduk, T. Anal. Biochem. 248, 216-227, 1997). The fractions containing the oligonucleotides were dried in Vacuum centrifuge concentrator and were dissolved in 50 μl of water. The concentration of the stock solutions of oligonucleotides was determined by recording the UV-VIS absorption spectrum of a small aliquot of the stock solution diluted to 400 μl. The LAC1 oligonucleotide (SEQ ID NO:12) was hybridized with the LAC4 oligonucleotide (SEQ ID NO:15) to generate the LAC1/LAC4 construct and the LAC2 oligonucleotide (SEQ ID NO:13) was hybridized with the LAC3 oligonucleotide (SEQ ID NO:14) to generate the LAC2/LAC3 construct. […] All subsequent fluorescence measurements were performed at 25° C. in 50 mM Tris/HCl (pH 8.0), 100 mM NaCl, 1 mM EDTA, and 0.1 mg/ml BSA. […]
The fluorescence spectra of 50 nM of LAC1/LAC4 plus LAC2/LAC3 were recorded in the absence of LacR (FIG. 14, curve 1) and in the presence of varying amounts of LacR in a range from 0-200 nM (FIG. 14, curves 2-7). Fluorescence signal quenching was proportional to the amount of LacR added to the reaction mixture, with saturation occurring at approximately 150 nM of LacR (FIG. 14, inset). […]

Trp repressor (TrpR) [3] = biological target: T2, Trp repressor (TrpR); test: FRET; specificity control
[4] = biological target: T1, CAP (cAMP receptor protein); test: competition; unlabeled duplex blocks CAP detection; 200 uM cAMP, 50 mM NaCl; details: chain copies: 2
Description: as §1

Trp repressor (TrpR) [5] = biological target: T2, Trp repressor (TrpR); test: FRET; two-color assay, TrpR only, no change in coumarin signal; 15 C
p53 = p53 (Homo sapiens, UniProt P04637 P04637:1-393); test: FRET; 0-130 nM p53, quenching proportional to p53, 50 mM NaCl, 100 nM nonspecific 30-bp DNA, 25 C; details: tags: full-length, expressed in bacteria (gift of K. S. Matthews); chain copies: 4; label: dT-fluorescein (P2), dT-dabcyl (P4); two half-site duplexes with short complementary overhangs
Experimental: The oligonucleotides were purified using reverse phase chromatography on a RPC column as described previously (Heyduk, E., and Heyduk, supra). The fractions containing the oligonucleotides were dried in Vacuum centrifuge concentrator and were dissolved in 50 μl of water. The concentrations of the stock solutions of oligonucleotides were determined by recording the UV-VIS absorption spectrum of a small aliquot of the stock solution diluted to 400 μl. The P1 oligonucleotide (SEQ ID NO:20) was hybridized with the P4 oligonudeotide (SEQ ID NO:23) to generate the P1/P4 duplex construct and the P2 oligonucleotide (SEQ ID NO:21) was hybridized with the P3 (SEQ ID NO:22) oligonucleotide to generate the P2/P3 duplex construct. For the hybridization, the appropriate oligonucleotides were mixed at 10 μM concentration in 100 μl of 50 mM Tris/HCl (pH 8.0), 100 mM NaCl, 1 mM EDTA, heated for 1 min at 95° C. and then cooled to 25° C. for 1 hr. All subsequent fluorescence measurements were performed at 25° C. in 50-mM potassium phosphate (pH 7.5), 50 mM NaCl, and 0.5 mg/ml BSA containing also 100 nM of a nonspecific 30-bp DNA duplex. The DNA duplexes obtained upon hybridization are illustrated in FIG. 18. The duplexes contain a repeat of 10 bp PuPuPuC(A/T)(T/A)GPyPyPy (SEQ ID NO:24) motif split between the two DNA duplexes. […]

[6] = biological target: T1, CAP (cAMP receptor protein); test: FRET; two-color assay, CAP only, no change in fluorescein signal; 200 uM cAMP; details: chain copies: 2; label: dT-fluorescein (TRP2), dT-dabcyl (TRP4); two half-site duplexes with short complementary overhangs
Experimental: Nucleic acid constructs specific for each of the proteins to be detected may be labeled with probes that emit light at different wavelengths. In this example, the reaction mixture contained nucleic acid constructs labeled with 7-diethylaminocoumarin-3-carboxylic acid for detecting CAP protein (described in EXAMPLE 2) and nucleic acid constructs labeled with fluorescein for detecting TrpR protein (described in EXAMPLE 6). Specifically, 100 nM CAP5/CAP3, 120 nM CAP1/CAP4, 100 nM TRP2/TRP3, and 120 nM TRP1/TRP4 duplexes were present in the reaction mixture.
All measurements were performed at 15° C. in 10 mM potassium phosphate (pH 7.6), 50 mM NaCl, 0.1 mM EDTA, 4 mM tryptophan, 200 μM cAMP, 10% glycerol, 0.01% sodium azide and 1.0 mg/ml BSA. The fluorescence spectra with the excitation at 433 nm (excitation of 7-diethylaminocoumarin-3-carboxylic acid, FIG. 17A) and with the excitation at 490 nm (excitation of fluorescein, FIG. 17B) were recorded in the absence of the proteins (curves 1), in the presence of CAP only (curves 2), in the presence of TrpR only (curves 3), and in the presence of both CAP and TrpR (curves 4). In the presence of only CAP there was no change in the fluorescein signal (FIG. 17B, curve 2) whereas about 60% quenching of the 7-diethylaminocoumarin-3-carboxylic acid signal was observed (FIG. 17A, curve 2). […]

[7] = biological target: T1, CAP (cAMP receptor protein); test: ratiometric FRET; 0-150 nM CAP, 200 uM cAMP, 25 C; details: chain copies: 2; label: 7-diethylaminocoumarin-3-carboxylic acid on amino-dT (CAP6), dT-fluorescein (CAP2); two half-site duplexes with short complementary overhangs
Experimental: In a second experiment (FIG. 9), the pair of CAP6/CAP1 and CAP2/CAP3 nucleic acid duplexes were tested for the performance in CAP assay. In this assay format, the 7-diethylaminocoumarin-3-carboxylic acid present in the CAP6/CAP1 duplex functioned as a fluorescence donor and the fluorescein present in the CAP2/CAP3 duplex functioned as an acceptor. In this case, both the donor as well as the acceptor are fluorescent. The experiment was performed at 25° C. in 50 mM Tris/HCl (pH 8.0), 100 mM NaCl, 1 mM EDTA, 0.1 mg/ml BSA, and 200 μM cAMP. […] The shoulder observed at about 520 nm is due to the residual emission of fluorescein, which is also to a small extent excited at 433 nm. Upon addition of varying amounts of CAP in a range from 0 to 150 nM (curves 2 -9), a pronounced quenching of the peak at 475 nm and a pronounced enhancement of the peak at 520 nm is observed. Recall that the emission maximum of fluorescein is 520 nm. […] Also, as shown in the inset of FIG. 9, the ratio between the fluorescence intensities at 520 nm and 475 nm may be used to determine the concentration of DNA binding proteins. This ratiometric mode of signal detection could be particularly useful since it would be less prone to trivial errors (such as pipetting errors, general quenching by some unrelated compounds present in the assayed sample).

T1 sequence (P0ACJ8 2-210, one chain of several): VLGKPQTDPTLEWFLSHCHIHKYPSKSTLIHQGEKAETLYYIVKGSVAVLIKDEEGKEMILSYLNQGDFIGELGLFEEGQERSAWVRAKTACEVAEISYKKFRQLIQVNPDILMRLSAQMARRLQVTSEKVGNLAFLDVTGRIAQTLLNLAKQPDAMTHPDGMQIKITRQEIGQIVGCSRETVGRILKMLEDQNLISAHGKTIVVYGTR
Chain of p53 (P04637 whole entry, one chain of several): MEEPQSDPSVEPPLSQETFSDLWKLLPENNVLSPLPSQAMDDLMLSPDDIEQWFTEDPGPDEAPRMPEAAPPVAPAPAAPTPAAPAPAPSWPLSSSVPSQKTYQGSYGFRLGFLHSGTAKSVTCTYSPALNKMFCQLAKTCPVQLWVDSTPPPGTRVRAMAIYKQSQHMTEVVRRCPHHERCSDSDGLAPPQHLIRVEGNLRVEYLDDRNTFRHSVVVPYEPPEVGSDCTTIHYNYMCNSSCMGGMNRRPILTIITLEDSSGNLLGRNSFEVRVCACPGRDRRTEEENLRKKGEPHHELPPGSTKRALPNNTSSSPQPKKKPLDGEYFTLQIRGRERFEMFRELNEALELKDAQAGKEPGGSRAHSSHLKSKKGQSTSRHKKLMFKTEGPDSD
Chain of Lac repressor (LacR) (P03023 whole entry, one chain of several): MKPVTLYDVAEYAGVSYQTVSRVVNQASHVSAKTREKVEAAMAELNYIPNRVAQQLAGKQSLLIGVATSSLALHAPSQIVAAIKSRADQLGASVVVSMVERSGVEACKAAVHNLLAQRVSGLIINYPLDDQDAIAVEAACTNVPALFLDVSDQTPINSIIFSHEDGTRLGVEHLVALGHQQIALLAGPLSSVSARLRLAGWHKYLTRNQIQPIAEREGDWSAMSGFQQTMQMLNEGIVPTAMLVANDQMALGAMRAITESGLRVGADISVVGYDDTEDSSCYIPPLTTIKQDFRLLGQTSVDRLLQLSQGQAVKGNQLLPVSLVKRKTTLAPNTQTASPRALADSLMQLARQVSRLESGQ

B1: NSP1 duplex (dsDNA)
DNA 1: GCATCGGTCACTGCAGTCTCGACAGCTACG
DNA 2: CGTAGCTGTCGAGACTGCAGTGACCGATGC
**Q.** Does B1 bind [1]?
**A.** no binding

B2: CAP1/CAP4 + CAP2/CAP3 (dsDNA)
DNA 1: AACGCAATAAATGTGA
DNA 2: TCTACTTCACATTTATTGCGTT
DNA 3: AGTAGATCACATTTTAGGCACC
DNA 4: GGTGCCTAAAATGTGA
modifications: [strand 2: T3 (N, modified T); strand 3: T3 (N, modified T)]
**Q.** Does B2 bind (Trp repressor (TrpR) [2])?
**A.** no binding

B3: LAC1/LAC4 + LAC2/LAC3 (dsDNA)
DNA 1: GGTGTGTGGAATTGTGA
DNA 2: ATACGCTCACAATTCCACACACC
DNA 3: GCGTATAACAATTTCACACAGG
DNA 4: CTTGTGTGAAATTGTT
modifications: [strand 2: T2 (N, modified T); strand 3: T4 (N, modified T)]
**Q.** Does B3 bind (Lac repressor (LacR))?
**A.** binds

**Q.** Does B3 bind (Trp repressor (TrpR) [3])?
**A.** no binding

B4: SP1 duplex (dsDNA)
DNA 1: CCTAAAATGTGATCTAGATCACATTTATTG
DNA 2: CAATAAATGTGATCTAGATCACATTTTAGG
**Q.** Does B4 bind [4]?
**A.** binds

B5: CAP5/CAP3 + CAP4/CAP1 (dsDNA)
DNA 1: AGTAGATCACATTTTAGGCACC
DNA 2: GGTGCCTAAAATGTGA
DNA 3: TCTACTTCACATTTATTGCGTT
DNA 4: AACGCAATAAATGTGA
modifications: [strand 1: T3 (N, modified T); strand 3: T3 (N, modified T)]
**Q.** Does B5 bind (Trp repressor (TrpR) [5])?
**A.** no binding

B6: P1/P4 + P2/P3 (dsDNA)
DNA 1: GCATCGGTCACAGACA
DNA 2: TGTCTAGGCATGTCTGTGACCGATGC
DNA 3: TGCCTAGACATGCCTTGCAGTCTCGA
DNA 4: TCGAGACTGCAAGGCA
modifications: [strand 2: T5 (N, modified T); strand 3: T5 (N, modified T)]
**Q.** Does B6 bind (p53)?
**A.** binds

B7: TRP1/TRP4 + TRP2/TRP3 (dsDNA)
DNA 1: GAGATCTATCGAACTA
DNA 2: GTTTACTAGTTCGATAGATCTC
DNA 3: GTAAACTAGTACGAAACTAGAG
DNA 4: CTCTAGTTTCGTACTA
modifications: [strand 2: T2 (N, modified T); strand 3: T2 (N, modified T)]
**Q.** Does B7 bind [6]?
**A.** no binding

B8: CAP6/CAP1 + CAP2/CAP3 (dsDNA)
DNA 1: TCTACTTCACATTTATTGCGTT
DNA 2: AACGCAATAAATGTGA
DNA 3: AGTAGATCACATTTTAGGCACC
DNA 4: GGTGCCTAAAATGTGA
modifications: [strand 1: T3 (N, modified T); strand 3: T3 (N, modified T)]
**Q.** Does B8 bind [7]?
**A.** binds
